Test results from article doi:10.64898/2025.12.17.694870 (bioRxiv, 2025).
Residue numbers refer to the chain shown, from its start. Where no end group is shown, it is not given here.

How the values were obtained:
[1] = biological target: T1, wild-type Homer1 EVH1 domain (1-118) (Mus musculus, UniProt Q9Z2Y3 1-118); assay: NMR titration
T1 sequence (looked up): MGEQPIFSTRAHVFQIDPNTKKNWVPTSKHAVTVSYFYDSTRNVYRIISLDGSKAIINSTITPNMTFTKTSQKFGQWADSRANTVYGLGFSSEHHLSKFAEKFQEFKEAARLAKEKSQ

[2] = biological target: T2, Homer1 EVH1 domain (1-118) M65I (Mus musculus, UniProt Q9Z2Y3 1-118, M65I); assay: NMR titration
T2 sequence (looked up): T1 sequence (looked up) with M65I

[3] = biological target: T3, Homer1 EVH1 domain (1-118) S97L (Mus musculus, UniProt Q9Z2Y3 1-118, S97L); assay: NMR titration
T3 sequence (looked up): T1 sequence (looked up) with S97L

[4] = biological target: T1, wild-type Homer1 EVH1 domain (1-118); assay: BLI
[5] = biological target: T2, Homer1 EVH1 domain (1-118) M65I; assay: BLI
[6] = biological target: T3, Homer1 EVH1 domain (1-118) S97L; assay: BLI

Measured: binding result

B1: short Shank3 peptide LVPPPEEFANG (peptide)
peptide: LVPPPEEFANG
binds: [1] | [2] | [3]

B2: biotinylated Shank3 peptide ligand LVPPPEEFANG (peptide)
peptide: LVPPPEEFANG
modifications: also: biotinylated, site not given here
binds: [4] | [5] | [6]
